The nature of the series: soluble on expression in E. coli; label from the status in PepcDB or PDB records.
On to “TVNQAKIFAQTTKMLEFAKQLLETDDFSTLREAYYVSKNWGEARFDDQQASNNVIEDLEAALGVLREHLGFIPEEDGSSVVGPLKIIEETPEGELVVDCTKLGTGAYNIPNDVTKLNLETDADFILAIETSGMFARLNAERFWDKHNCILVSLKGVPARATRRFIKRLHEEHDLPVLVFTDGDPYGYLNIYRTLKVGSGKAIHLADKLSIPAARLIGVTPQDIIDYDLPTHPLKEQDIKRIKDGLKNDDFVRSFPEWQKALKQMLDMGVRAEQQSLAKYGLKYVVNTYLPEKIKDESTWLP”, for which the “soluble on expression in E. coli” value is “soluble”.
Next, “TYDGKVESVVLGFATEVPEPWVTEKLSITEEELVYKIIRLRIIEDVPSIIEYTWMPVALIPNLTMKELKVSIYQYISEQLHQKIQSARVSISGIRPSPLEKKYLNLTDNDFLMRAEQIAYLGNGHIFEYSIANHIPSEFTFETVLIAEK”: “not soluble”.
Next, “VAAALGVKPPETATTPEIVVGRPPELCKGCGHRDMFDAINIAIKENADHHVFSDIGCYTLGALPPYNAIHTCVDMGAAITMAKGAADAGLRPAVCVIGDSTFAHSGMTGLLDAVNDRTPVTVIIADNNTTAMTGGQCSSASGSKLVNICIGLGVEEAHIRTIVPLRQHLHENVSVLRDEFAYNGVSVVIAQRECIETAAKKKRRAAASAQ”: “not soluble”; “VAESKLVIGDRSFASRLIMGTGGATNLAVLEQALIASGTELTTVAIRRVDADGGTGLLDLLNRLGITPLPNTAGSRSAAEAVLTAQLAREALNTNWVKLEVIADERTLWPDAVELVRAAEQLVDDGFVVLPYTTDDPVLARRLEDTGCAAVMPLGSPIGTGLGIANPHNIEMIVAGARVPVVLDAGIGTASDAALAMELGCDAVLLASAVTRAADPPAMAAAMAAAVTAGYLARCAGRIPKRFWAQASSPAR”: “soluble”.
Next, “VAVRPVLAVGSYLPHAPWPWGVIDQAARVLLPASTTVRAAVSLPNASAQLVRASGVLPADGTRRAVLYLHGGAFLTCGANSHGRLVELLSKFADSPVLVVDYRLIPKHSIGMALDDCHDGYRWLRLLGYEPEQIVLAGDSAGGYLALALAQRLQEVGEEPAALVAISPLLQLAKEHKQAHPNIKTDAMFPARAFDALDALVASAAARNQVDGEPEELYEPLEHITPGLPRTLIHVSGSEVLLHDAQLAAAKLAAAGVPAEVRVWPGQVHDFQVAASMLPEAIRSLRQIGEYIREATG”: “not soluble”; “VDEIGELADSFNTLTKRVQEAQAMTEGERRKLSSVLAYMTDGVIATDRRGKVILINTPAEKMLRVKHESANGRSIIDVLDIGDTYQFEDLMEVDGSLTMDRSTLDKPYVLRANFSVIQRETG”: “not soluble”.
Turning to “VDSVYRTRSLGVAAEGIPDQYADGEAARVWQLYIGDTRSRTAEYKAWLLGLLRQHGCHRVLDVACGTGVDSIMLVEEGFSVTSVDASDKMLKYALKERWNRRKEPAFDKWVIEEANWLTLDKDVPAGDGFDAVICLGNSFAHLPDSKGDQSEHRLALKNIASMVRPGGLLVIDHRNYDYILSTGCAPPGKNIYYKSDLTKDITTSVLTVNNKAHMVTLDYTVQVPGAGRDGAPGFSKFRLSYYPHCLASFTELVQEAFGGRCQHSVLGDFKPYRPGQAYVPCYFIHVLKKTG”, the “soluble on expression in E. coli” value was “soluble”.
Next, “VDVRAIMTPPAHQDGGKHDVDARGPCGLTPLMIAAVRGGGLDTGEDIENNEDSTAQVISDLLAQGAELNATMDKTGETSLHLAARFARADAAKRLLDAGADANCQDNTGRTPLHAAVAADAMGVFQILLRNRATNLNARMHDGTTPLILAARLAIEGMVEDLITADADINAADNSGKTALHWAAAVNNTEAVNILLMHHANRDAQDDKDETPLFLAAREGSYEACKALLDNFANREITDHMDRLPRDVASERLHHDIVRLLDEHVPRSPQMLSMTPQAMIGSPPPGQQQPQLITQPTVISAGNGGNNGNGNASGKQSNQT”: “soluble”; “VHEGHRKRLKERFLREGLDSFEQHQVLELLLFFSIPRKDTNELAHTLLNRYGSLSGVFEADPKDLATTPGIGENSAILLSLIPHLSRRYLNDKWRDKPELNSSAKAGQYAISLFAGRNYEVFYVICLDAQNRVNYAELVHEGTINEAPVYPRIIVETALRHKANSVILAHNHPGGTLNPSKADIEATKRIKAALEAISIKVVDHIIVCGGQYVSFAEKGLLSG”: “soluble”; “VIADDFTGATDIASFLVENGMPTVQINDVPTGTQPEGCDAVVISLKTRSCPAQEAIKQSLAALVWLKKQGCQQVYFKYCSTFDSTAEGNIGPVTDALMVALDTSFTVISPALPVNGRTVYQGYLFVMNHLLAESGMRHHPINPMTDSYLPRLMEAQAQGRCGVIPAQTLDEGVAATRAALSRLQQEGYRYAVLDALNERHLEIQGEVLRDAPLVTGGSGLAMGLARQWAKHGVSQARSAGYPLSGRAVVLSGSCSQMTNQQVAFYRQHAPTRDVDVARCLSSETREAYAEALAQWVLSQDSELAPMISATASTQALAAIQQQYGATEASHAVEALFSLLAARLAEGGITRFIVAGGETSGVVTQSLGITGFHIGPCISPGVPWVNALHAPVSLALKSGNFGDES”: “not soluble”.
Next, “VIGYEYPDWIWGWTNTVTYKNFTLSFTLDGRVGGMAHSKTNQAMWNSGAHIDSDNQWRYDEVVNKKTNFVGSGVKVVSGSVDYDSNGKIIHDNRVFAPNDVQVSYESYMKSTNPYIGTVTRQNVFDETFFKLRDLSLSYQMPKSVCDKLHMKGLTLAFVGQNLFVWTKEFRFTDPDSDSDNLSSPSTRYLGFNVKLDF”: “not soluble”.
Consider “VIVAGARTPIGKLMGSLKDFSASELGAIAIKGALEKANVPASLVEYVIMGQVLTAGAGQMPARQAAVAAGIGWDVPALTINKMCLSGIDAIALADQLIRAREFDVVVAGGQESMTKAPHLLMNSRSGYKYGDVTVLDHMAYDGLHDVFTDQPMGALTEQRNDVDMFTRSEQDEYAAASHQKAAAAWKDGVFADEVIPVNIPQRTGDPLQFTEDEGIRANTTAAALAGLKPAFRGDGTITAGSASQISDGAAAVVVMNQEKAQELGLTWLAEIGAHGVVAGPDSTLQSQPANAINKALDREGISVDQLDVVEINEAFAAVALASIRELGLNPQIVNVNGGAIAVGHPLGMSGTRITLHAALQLARRGSGVGVAALCGAGGQGDALILRAG”, for which the “soluble on expression in E. coli” value is “not soluble”.
For the sequence “VKLAAGMGVMSDLEKKFIELEAKLVAQPAGQAMPGKSNIFANNEAWRQEMLKQDPEFFNRLANGQSPEYLWIGCADSRVPANQLLDLPAGEVFVHRNIANQCIHSDISFLSVLQYAVQYLKVKHILVCGHYGCGGAKAALGDSRLGLIDNWLRHIRDVRRMNAKYLDKCKDGDEELNRLIELNVLEQVHNVCATSIVQDAWDAGQELTVQGVVYGVGDGKLRDLGVVVNSSDDISKFYRTKSDSGALKAGNPNAPLVQVTKGGESELDSTMEKLTAELVQQTPGKLKEGANRVFVNNENWRQKMLKQDPQFFSNLAHTQTPEILWIGCADSRVPANQIINLPAGEVFVHRNIANQCIHSDMSFLSVLQYAVQYLKVKRVVVCGHYACGGCAAALGDSRLGLIDNWLRHIRDVRRHNQAELSRITDPKDSLNRLIEINVLEQMHNVCATSIVQDAWDAGQELEVQGVVYGVGDGKLRDMGVVAKANDDIGQIFRTKQ”, the “soluble on expression in E. coli” value is on record as “soluble”.
Next, “VKLTEKQKAFCDYYIETLNATESYKKAGYKVKTDGAARVNASRLLTNANVRKYIEERMKQKESERIASQDEVLEFLTRVMRGQEVEEVVGFTEYGAVKEKKTPSARDRVKAAELLGKRYALFTEKVNVEGNMGVAIIDDIKEDDSDDAS”: “soluble”; “VLGVTPDTEVVKPTRTQAERTAAMRTKLLDAAVDSLVELGYARTTTQGIARRAGVSRGAQLHHFPTKESLVVAAVEHLVDKRMEEILAADVDAGRGVDVLADAFSGPLFYAALELWVAARTDPALYEATVPLERKVNDALRRGSAEVFGDRFDADTIELSIELVRGLAVSALFRTPEAEQSLRARLLPVWESKVEKS”: “not soluble”.
Next, “VNQQLNSATKLFSVKLGATRVIYHAGTAGATLSVSNPQNYPILVQSSVKAADKSSPAPFLVMPPLFRLEANQQSQLRIVRTGGDMPTDRETLQWVCIKAVPPENEPSDTQAKGATLDLNLSINACDKLIFRPDAVKGTPEDVAGNLRWVETGNKLKVENPTPFYMNLASVTVGGKPITGLEYVPPFADKTLNMPGSAHGDIEWRVITDFGGESHPFHYVLK”: “soluble”; “VNVVQLASAPLHRIVAYTNESCALALYRDQDATLVFAKQVESANQLRYQLDLYRPVSVLWGASGHAVLAHLPPERVRTLLKKEPLSPTGLAALPARELNRDLKQIREQGYSVSTRGEKIEGAAGISTPIFGTGGHVIGCFSLFIPRIRYPEHRETELAQLLVREAGALSDVLAGRQAAPA”: “not soluble”; “VQEPLRVPPSAPARLVVLASGTGSLLRSLLDAAVGDYPARVVAVGVDRECRAAEIAAEASVPVFTVRLADHPSRDAWDVAITAATAAHEPDLVVSAGFMRILGPQFLSRFYGRTLNTHPALLPAFPGTHGVADALAYGVKVTGATVHLVDAGTDTGPILAQQPVPVLDGDDEETLHERIKVTERRLLVAAVAALATHGVTVVGRTATMGRKVTIG”: “soluble”.
Next, “VRDVLDNQEFGFTGLHVAAAVADTLGTGDTLFAAASNSIRDLSLVGMPFDGVDTFSPRGVAGIDGSVAQAIGTSLAVQSRHPDEIRAPRTVALLGDLSFLHDIGGLLIGPDEPRPENLTIVVSNDNGGGIFELLETGADGLRPNFERAFGTPHDASIADLCAGYGIEHQVVDNLQDLIIALVDTTEVSGFTIIEASTVRDTRRAQQQALMDTVH”: “not soluble”; “VRGLPRAKKLEKLGVFSACKANGTCKCNGWKNPKPPTAPRIDLQQPAANLSELCRSCEHPLADHVSHLENVSEDEINRLLGMVVDVENLFMSVHKEEDTDTKQVYFYLFKLLRKCILQMTRPVVEGSLGSPPFEKPNIEQGVLNFVQYKFSHLAPRERQTMFELSKMFLLCLNYWELETPAQFRQRSQAEDVATYKVNYTRWLCYCHVPQSCDSLPRYETTHVFGRS”: “soluble”; “VRKRMVIGLSTGSDDDDVEVIGGVDPRLIAVQENDSDESSLTDLVEQPAKVMRIGTMIKQLLEEVRAAPLDEASRNRLRDIHATSIRELEDGLAPELREELDRLTLPFNEDAVPSDAELRIAQAQLVGWLEGLFHGIQTALFAQQMAARAQLQQMRQGALPPGVGKSGQHGHGTGQYL”: “soluble”.
Regarding “VRRDRAPPERGGAGTSQDGTSKNWFKITIPYGRKYDKAWLLSMIQSKCSVPFTPIEFHYENTRAQFFVEDASTASALKAVNYKILDRENRRISIIINSSAPPHTILNELKPEQVEQLKLIMSKRYDGSQQALDLKGLRSDPDLVAQNIDVVLNRRSSMAATLRIIEENIPELLSLNLSNNRLYRLDDMSSIVQKAPNLKILNLSGNELKSERELDKIKGLKLEELWLDGNSLCDTFRDQSTYISAIRERFPKLLRLDGHELPPPIAFDVEAPTTLPP”, the “soluble on expression in E. coli” value is recorded as “soluble”.
Next, “VSEIKTLVTFFGGTGDLAKRKLYPSVFNLYKKGYLQKHFAIVGTARQALNDDEFKQLVRDSIKDFTDDQAQAEAFIEHFSYRAHDVTDAASYAVLKEAIEEAADKFDIDGNRIFYMSVAPRFFGTIAKYLKSEGLLADTGYNRLMIEKPFGTSYDTAAELQNDLENAFDDNQLFRIDHYLGKEMVQNIAALRFGNPIFDAAWNKDYIKNVQVTLCEVLGVEERAGYYDTAGALLDMIQNHTMQIVGWLAMEKPESFTDKDIRAAKNAAFNALKIYDEAEVNKYFVRAQYGAGDSADFKPYLEELDVPADSKNNTFIAGELQFDLPRWEGVPFYVRSGKRLAAKQTRVDIVFKAGTFNFGSEQEAQEAVLSIIIDPKGAIELKLNAKSVEDAFNTRTIDLGWTVSDEDKKNTPEPYERMIHDTMNGDGSNFADWNGVSIAWKFVDAISAVYTADKAPLETYKSGSMGPEASDKLLAANGDAWVFKG”: “soluble”.

The values are drawn from the DeepSol protein solubility set.
